# According to patent US20230242902A1, “A HIGHLY ERROR-PRONE […] R[…] FOR TARGETED CONTINUOUS EVOLUTION IN VIVO” (The Regents of the University of California, priority 2017, published 2023):
# B1: S305N: TP-DNAP1 variant (protein)
# chain: MDYKDKALNDLRNVYADFDSLPLDFRQILIKDRATLLQKEDVEKKILERQEDAKKYAEYLKQSEIPERISLPNIKRHKGVSISFEETSEDMVLEPRPFIFDGLNIRCFRRETIFSLKNKILNMVKESSSFKNVSRQSVSFMYFKIFNKGKVIASTKSVNIYEDKIDERLEDLCNNFDDVLKKIIDVTYGYESLFVSETYSYVIFYAKSIYFPQPRCVNNWGNNIPNILTFDSFKLFTANKNNVSCIKQCSRFLWQKDFNTLEEMIEYKNGNICIVTPQLHINDVRDIKSFNDIRLYSESPIKTFNVIDNTITYLFYFKEHLGVIFNITKSRHDRRVTKFSPLSKFSDVKNITVCFDIESYFDPEKESNQVNIPFICCASIIYNKVIGNIVDFEGRDCVAQMIEYVVDICGELNISSVELIAHNGGGYDFHYILSSMYNPAAIKNILIRNNSFISFNFAHDGVKFSVKDSYSFLLCSLANASKAFLNEETFKKTDFPHHDLKTADDLYKVYKEWSSVNTEINHVVEKEKLLITSEHIVNFTKNDKSKTLIEWSKDYCRNDVLVLSKVWLEFKNAVEDIFNCELVDQTMTLAGLSYKLFQANMPFDVELRHPNKEDYFNMREALIGGRCISVNGIYKDVLCLDVKSLYPASMAFYDQPYGSFKRVSSRPKDELGIYYVRVTPNRNNKSNFFPIRSHNKITYNNFEESTYIAWYTNVDIDIGLSEGHNIEYIPFDSYGNIGYSWSKKGKIFEKYIKDVLYKLKIKYEKQNNKVKRNVIKIIMNSLWGKFAQKWVNFEYFIKSEDDIDFESEEAYKIWDTDFMLIKKIKESTYSSKPIQNGVFTLSWARYHMKSIWDAGAKEGAECIYSDTDSIFVHKEHFKKNAKFMLNGLKVPIIGSEVGQLELECEFDKLLCAGKKQYMGFYTYFQDGKPCIKEKKRFKGIPSNYIIPELYAHLLSGADKEAKIQFLKFRREWGSVKGYIENKTVKAT
# B2: S305G: TP-DNAP1 variant (protein)
# chain: MDYKDKALNDLRNVYADFDSLPLDFRQILIKDRATLLQKEDVEKKILERQEDAKKYAEYLKQSEIPERISLPNIKRHKGVSISFEETSEDMVLEPRPFIFDGLNIRCFRRETIFSLKNKILNMVKESSSFKNVSRQSVSFMYFKIFNKGKVIASTKSVNIYEDKIDERLEDLCNNFDDVLKKIIDVTYGYESLFVSETYSYVIFYAKSIYFPQPRCVNNWGNNIPNILTFDSFKLFTANKNNVSCIKQCSRFLWQKDFNTLEEMIEYKNGNICIVTPQLHINDVRDIKSFNDIRLYSESPIKTFGVIDNTITYLFYFKEHLGVIFNITKSRHDRRVTKFSPLSKFSDVKNITVCFDIESYFDPEKESNQVNIPFICCASIIYNKVIGNIVDFEGRDCVAQMIEYVVDICGELNISSVELIAHNGGGYDFHYILSSMYNPAAIKNILIRNNSFISFNFAHDGVKFSVKDSYSFLLCSLANASKAFLNEETFKKTDFPHHDLKTADDLYKVYKEWSSVNTEINHVVEKEKLLITSEHIVNFTKNDKSKTLIEWSKDYCRNDVLVLSKVWLEFKNAVEDIFNCELVDQTMTLAGLSYKLFQANMPFDVELRHPNKEDYFNMREALIGGRCISVNGIYKDVLCLDVKSLYPASMAFYDQPYGSFKRVSSRPKDELGIYYVRVTPNRNNKSNFFPIRSHNKITYNNFEESTYIAWYTNVDIDIGLSEGHNIEYIPFDSYGNIGYSWSKKGKIFEKYIKDVLYKLKIKYEKQNNKVKRNVIKIIMNSLWGKFAQKWVNFEYFIKSEDDIDFESEEAYKIWDTDFMLIKKIKESTYSSKPIQNGVFTLSWARYHMKSIWDAGAKEGAECIYSDTDSIFVHKEHFKKNAKFMLNGLKVPIIGSEVGQLELECEFDKLLCAGKKQYMGFYTYFQDGKPCIKEKKRFKGIPSNYIIPELYAHLLSGADKEAKIQFLKFRREWGSVKGYIENKTVKAT
# Test system: p1
# Assay: p1 copy number by p1-encoded mKate2 fluorescence
# Format: cell-based, S. cerevisiae
# Details: OR-Y24, measured in triplicate
# In short: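 Read-out is mKate2 fluorescence of saturated OR-Y24 cultures, measured by flow cytometry or by plate reader with OD600 normalization. Flow values were converted by a qPCR-derived linear calibration; plate values were scaled to a w.t. TP-DNAP1 control.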
row,Molecule,Mean fold-increase over w.t. (p1 copy number)
1,B1,2.3 fold
2,B2,2.53 fold
